Measurements: US20070192880A1, “Horming response element binding transregulators” (UNIVERSITY OF ROCHESTER, priority 2003, published 2007)

B1: Progesterone Receptor (protein, UniProt P06401 1-933, looked up)
Progesterone receptor: MTELKAKGPRAPHVAGGPPSPEVGSPLLCRPAAGPFPGSQTSDTLPEVSAIPISLDGLLFPRPCQGQDPSDEKTQDQQSLSDVEGAYSRAEATRGAGGSSSSPPEKDSGLLDSVLDTLLAPSGPGQSQPSPPACEVTSSWCLFGPELPEDPPAAPATQRVLSPLMSRSGCKVGDSSGTAAAHKVLPRGLSPARQLLLPASESPHWSGAPVKPSPQAAAVEVEEEDGSESEESAGPLLKGKPRALGGAAAGGGAAAVPPGAAAGGVALVPKEDSRFSAPRVALVEQDAPMAPGRSPLATTVMDFIHVPILPLNHALLAARTRQLLEDESYDGGAGAASAFAPPRSSPCASSTPVAVGDFPDCAYPPDAEPKDDAYPLYSDFQPPALKIKEEEEGAEASARSPRSYLVAGANPAAFPDFPLGPPPPLPPRATPSRPGEAAVTAAPASASVSSASSSGSTLECILYKAEGAPPQQGPFAPPPCKAPGASGCLLPRDGLPSTSASAAAAGAAPALYPALGLNGLPQLGYQAAVLKEGLPQVYPPYLNYLRPDSEASQSPQYSFESLPQKICLICGDEASGCHYGVLTCGSCKVFFKRAMEGQHNYLCAGRNDCIVDKIRRKNCPACRLRKCCQAGMVLGGRKFKKFNKVRVVRALDAVALPQPVGVPNESQALSQRFTFSPGQDIQLIPPLINLLMSIEPDVIYAGHDNTKPDTSSSLLTSLNQLGERQLLSVVKWSKSLPGFRNLHIDDQITLIQYSWMSLMVFGLGWRSYKHVSGQMLYFAPDLILNEQRMKESSFYSLCLTMWQIPQEFVKLQVSQEEFLCMKVLLLLNTIPLEGLRSQTQFEEMRSSYIRELIKAIGLRQKGVVSSSQRFYQLTKLLDNLHDLVKQLHLYCLNTFIQSRALSVEFPEMMSEVIAAQLPKILAGMVKPLLFHKK
notes: expressed from vector, treated with Progesterone
B2: Retinoic X Receptor α (protein, UniProt P19793 1-462, looked up)
Retinoic acid receptor …: MDTKHFLPLDFSTQVNSSLTSPTGRGSMAAPSLHPSLGPGIGSPGQLHSPISTLSSPINGMGPPFSVISSPMGPHSMSVPTTPTLGFSTGSPQLSSPMNPVSSSEDIKPPLGLNGVLKVPAHPSGNMASFTKHICAICGDRSSGKHYGVYSCEGCKGFFKRTVRKDLTYTCRDNKDCLIDKRQRNRCQYCRYQKCLAMGMKREAVQEERQRGKDRNENEVESTSSANEDMPVERILEAELAVEPKTETYVEANMGLNPSSPNDPVTNICQAADKQLFTLVEWAKRIPHFSELPLDDQVILLRAGWNELLIASFSHRSIAVKDGILLATGLHVHRNSAHSAGVGAIFDRVLTELVSKMRDMQMDKTELGCLRAIVLFNPDSKGLSNPAEVEALREKVYASLEAYCKHKYPEQPGRFAKLLLRLPALRSIGLKCLEHLFFFKLIGDTPIDTFLMEMLEAPHQMT
modifications: treated with 9-cis retinoic acid
notes: expressed from vector, treated with 9-cis retinoic acid

Experiments:
[1] = test system: PRE 5′-AGAACAnnnTGTTCT-3′; assay: luciferase reporter bearing a single PRE, COS-1 cells; assay type: cell-based, African green monkey; settings: PR with 10^−8 M Progesterone
Method: (§1) An ERE drives the expression of the firefly luciferase cDNA as the reporter enzyme from the TATA box promoter. […] The reporter vector contains no (TATA) or two ERE half sites with 0, 1, 2, 3, 4, 5, 10 or 15 non-specific central nucleotides. FIGS. 4C and 4D show COS-1 cells were transfected with expression vectors bearing none (V), RXRα (Panel C) PR (Panel D), ERα, (VP16)2-CDC-(p65)2 or (p65)2-CDC-(VP16)2 cDNA. Cells were treated with 10^−6 M 9-cis-retinoic acid for RXRα, 10^−8 M Progesterone for PR or 10^−9 M E2 for ERα for 24 h. The TATA box reporter vector bears one consensus RXRE 5′-AGGTCAnAGGTCA-′3 (Panel C) or PRE 5′-AGAACAnnnTGTTCT-3′ (panel D) that drives the expression of the reporter firefly luciferase cDNA. Normalized luciferase values represented as fold change are the mean±SEM of three independent experiments performed in duplicate.
(§2) Culturing and transfection of the mammalian COS-1 and […] MDA-MB-231 cells were described previously (Muyan, M. et al. (2001) Mol Cell Endocrinol 182,249-263; Yi, P. et al. (2002) Mol Endocrinol 16, 1810-1827), with the exceptions that 48 well cell culture plates were used and Trans-IT LTI transfection reagent (Mirus Corp., Madison, Wis.). Luciferase assays were performed with a Dual Luciferase Assay kit (Promega) according to the manufacture's recornmendations. […]

[2] = test system: consensus RXRE 5′-AGGTCAnAGGTCA-3′; assay: luciferase reporter bearing one RXRE, COS-1 cells; assay type: cell-based, African green monkey; settings: RXRα with 10^−6 M 9-cis retinoic acid
Method: as §1, §2

Molecule | reporter enzyme activity from a single PRE [1] | luciferase activity from a reporter plasmid bearing one RXRE [2]
B1 | enhanced the reporter enzyme activity | –
B2 | – | augmented the enzyme activity
